Test results as given in PMC13367182.

Experiments:
[1] = biological target: mononucleosome with deletion of the histone H3 tail (human) (UniProt P04908); experiment: AlphaScreen or HTRF
[2] = biological target: mononucleosome with deletion of the histone H4 tail (human) (UniProt P04908); experiment: AlphaScreen or HTRF

With “HIV-1 intasome assembled in the presence of LEDGF/p75 (from UniProt O75475 1-530) (complex)” the decrease in the bridging signal against native nucleosomes [1] was 20% and the decrease in the bridging signal against native nucleosomes [2] was 20%.
